Measured values reported in publication PMC8776730 (Nature Communications, 2022).

Legend:
MIA PaCa-2 cells [1] = experiment: Cellular imaging (CLSM) of FITC-labelled molecules; format: cell-based; conditions: FITC-labelled molecules, MIA PaCa-2 cells, 1 h incubation, CLSM
Method: To further confirm this hypothesis, the M1 and M2 were equally labeled by FITC for cell imaging (Fig. 5b). To simulate the dynamic physiological condition, the cell culture medium was replaced every 15 min. After 1 h of incubation with M1 and M2 at the same molecule molar concentration, there occurred significant differences between the two molecules (Fig. 5c). […] The huge difference can be explained by the fact that the secondary assembly rate broke the balance between the targeted ligand and receptor, and thus tended to a stable assembly interaction. The retention efficiency depended on the assembly rate constant Ka. Meanwhile, the rapid dynamic assembly of BIVA probe in situ around the cell membrane, and contributed to the efficient formation and retention of nanofibers on the cell profile. When the incubation time was delayed up to 2 h, some components could be endocytosed into the cells, but most of them were found on the membranes (Supplementary Fig. 18). […] Then, the isolated cells were collected and lysed, the extracted cell membrane fragments were stained with ThT. […] In order to verify the influence of the addition of the targeting module of the probe molecules, we explored the imaging of R-M1 and M4 on cells.
Fig. 5 The BIVA effect with enhanced targeting to pancreatic tumor cell for boundaries imaging. a Illustration of BIVA effect: active targeting and assembly/aggregate induced retention (AIR) effect. b Chemical structure of FITC labeling. c 2D and 3D confocal images of M2 with active targeting property and M1 with BIVA effect on MIA PaCa-2 cells after incubation for 1 h. d The distribution of M1 on MIA PaCa-2 cell. e ThT staining of the lysed cell membrane of MIA PaCa-2. f, Illustration of migration inhibition after treated by BIVA probe. g The image of the migrated cells after treatment of PBS (blank), M2, M4, and M1. Scale bar: 100 μm. h The pie diagram of quantitative statistical calculation of the migrated cells (blue) in different groups. The blank control was set as 100% migrated cells.
MIA PaCa-2 cells were digested with trypsin, counted with cell counting plate, diluted to 1 × 10^4 with DMEM medium, and 1 mL to 1 cm diameter confocal microscope dish was taken. The cells were incubated in […] atmosphere for 24 h. The medium containing M1 and M2 (50 μM) was replaced and incubated with the cells for 2 h. The cells were washed with PBS for 3 times. CLSM (Zeiss 710) was used to image cells under 40 × objective, excitation = 488 nm, and emission >520 nm.
Supplementary Fig. 19 ∣ CLSM images of Miapaca-2 cells treated with different molecules or M1 under different conditions. […]

MIA PaCa-2 cells [2] = experiment: Cytotoxicity, CCK-8 assay; format: cell-based; conditions: CCK-8, 24 h, at high concentration of 300 μM
Method: The cytotoxicity of M1 and M2 was evaluated using CCK-8 assay in MIA PaCa-2 cells. Cells were seeded into 96-well plates at a density of 5 × 10^4 cells per well and placed in an incubator for 14 h. Subsequently, the sample was diluted into a series of different concentrations (0, 50, 100, 150, 200, 250, 300, and 350 μM) and incubated with cells for 24 h. After that, 10 μL of CCK-8 solution was added to each well and incubated for 2 h. The absorbance of blank wells (Ab), sample wells (As) and control wells (Ac) were measured with a microplate reader at a test wavelength of 450 nm and a reference wavelength of 690 nm. The cell viability rate (%) is equal to (As -Ab) / (Ac -Ab) ×100%. All experiments were repeated in triplicate.
Supplementary Fig. 21∣ Cellviability assay of Miapaca-2 cells treated with a series concentration of M1 and M2 for 24 h.
Tested by Cell Counting Kit-8 (Beyotime, C0039) The mean of results of six parallel experiments isshown and data were
expressed as mean ± SD (n=6).
(§1) (1 picture or pasted object on this page, not shown here)

MIA PaCa-2 tumor [3] = conditions: mouse, in vivo, 16 mg/kg
Method: In order to reduce systemic error and individual difference, we constructed the subcutaneous pancreatic cancer model in mice for quantitatively calculating of the metabolic data.
All the animal experiments were performed in accordance with the Guide for the Care and Use of Laboratory Animals approved by the Committee for Animal Research of the National Center for Nanoscience and Technology. The MIA PaCa-2 tumor-bearing mice were intravenously injected with ICG, M1 and M2 (16 mg/kg), respectively for in vivo fluorescence imaging with in vivo spectrum imaging system. Finally, mice were sacrificed to collect the major organs and tumors for ex vivo fluorescence imaging.

[4] = tested on: orthotopic pancreatic tumor (MIA PaCa-2); experiment: Signal in small orthotopic tumor area versus healthy spleen area; format: in vivo; conditions: orthotopic pancreatic tumor mice, i.v. 16 mg/kg, 12 h
Method: To evaluate the imaging property of BIVA probe, the orthotopic pancreatic tumor mice model was built. After intravenous injected M1 and M2 molecules with a dose of 16 mg/kg for 12 h, the mice were sacrificed. […] Then, all the important organs were dissected for ex vivo imaging. […] Upon the individual differences, we validated 6 mice under surgery to induce orthotopic tumor in pancreatic head. […] As known, the FAP-α was a membrane located protein, overexpressed on tumor associate fibroblast cell and pancreatic cell surface.

MIA PaCa-2 tumor [5] = experiment: In vivo photoacoustic imaging; parameters: species or system mice; conditions: 12 h after i.v. injection, 16 mg/kg
Method: The MIA PaCa-2 tumor-bearing mice were constructed for in vivo photoacoustic imaging of M1. After intravenously injected with M1 (16 mg/kg) through tail vein, the PA images of mice were acquired with MOST (mode: MOST invision 128) at 12 h post injection.
Supplementary Fig. 22∣ 3D reconstruction PA images of tumor-bearing mice injected with M1 (16 mg/kg) through tail
vein.PA images of mice were acquired with MOST (mode: MOST 128) at 12 h post injection.
as §1

## mPEG-GPAKLVFFGC(IR783)GRGD [M1]
MIA PaCa-2 cells [1]
  fluorescence signal on the cell membrane: higher fluorescence retention rate on the cell membrane
MIA PaCa-2 cells [2]
  cytotoxicity: no obvious cytotoxicity
MIA PaCa-2 tumor [3]
  AUC 0-120 h in tumor tissue relative to M2: 3.6 times
  reduction of tumor fluorescence signal between 12 h and 120 h: 27.6%
  time to peak of tumor signal: ~12 h
MIA PaCa-2 tumor [3]; iv
  retention in tumor lasted: up to 96 h
[4]
  fluorescence signal on tumor relative to surrounding spleen tissue (signal-to-background): over 9 folds
MIA PaCa-2 tumor [5]
  accumulation in tumor by photoacoustic imaging: more accumulation in tumor than that of M2
